# Source: paper PMC8809985, “Preparation and characterization of a fully human monoclonal antibody specific for human tumor necrosis factor alpha” (Bioengineered, 2021)
# “And” between values parts separate entries of the source, which are not always exact repeats. Equal values may be shown once.
# Biological target: recombinant human tumor necrosis factor alpha (Homo sapiens, UniProt P01375)
# Assay: cell-based or functional assay
# recombinant human tumor necrosis factor alpha, sequence (P01375 77-233): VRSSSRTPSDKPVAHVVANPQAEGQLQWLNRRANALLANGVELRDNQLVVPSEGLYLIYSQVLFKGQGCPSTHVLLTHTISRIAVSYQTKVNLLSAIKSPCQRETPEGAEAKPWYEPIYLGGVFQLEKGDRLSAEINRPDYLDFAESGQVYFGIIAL
binder,measurement,value
"Haidalimumab (antibody, V domains shown) VH: EVQLVESGGGLVQPGGSLRLSCAASGFPFSNHWMNWVRQAPGKGLEWVGEIRSKSMNSATHYAESVKGRFTISRDDSKNSLYLQMNSLKTEDTAVYYCARNYYGSTYDHWGQGTLVTVSS VL: EIVLTQSPDFQSVTPKEKVTITCRASQFVGYSIHWYQQKPDQSPKLLIKYASESRSGVPSRFSGSGSGTDFTLTINSLEAEDAATYYCQQSHSWHFTFGQGTKLEIK","EC50 of neutralisation of the cytotoxicity of rhTNFα (1 ng/mL, with actinomycin D 2.5 μg/mL) on L929 cells, MTT; one of three antibody batches",19.5 ng/mL and 18 ng/mL and 15.8 ng/mL
